From the supplement of paper PMC10567573
± gives the standard deviation.

Assay: protein stability index of a GFP-peptide fusion (GPS, HEK-293T) (PSI 1-6); higher = more stable
[1] = treatment: DMSO, c terminus: a fixed tail appended
[2] = treatment: MLN4924 1 uM, 8 h, c terminus: a fixed tail appended
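Further: 24-mer peptide tiles fused after GFP, lentivirally expressed, FACS-sorted into six equal bins by GFP/DsRed ratio, decoded by Illumina sequencing, PSI is the read-weighted mean bin number.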

Sequence	protein stability index (treatment: DMSO, c terminus: native)	protein stability index (treatment: MLN4924 1 uM, 8 h, c terminus: native)	protein stability index [1]	protein stability index [2]
QPKPLLLPAAPKTQTISSIPPQT [ATF6]	4.73 ± 0.23	4.65 ± 0.34		
FRNIKQEPFSARVLVLCVFNSILP [SOAT1]			2.9 ± 0.35	2.87 ± 0.59
MRSAAVLALLLCAGQVTALPVNSP [CHGA]			3.21 ± 0.45	2.83 ± 0.57
AVAHKTPRCPGSVNEKLPQREGTG [SMOC2]			5.13 ± 0.47	5.33 ± 0.12
VDPIGHLYIFATCLGLSYDGLLGD [MAGEA3]			3.06 ± 0.37	3.21 ± 0.34
EEDENGLPRRRGLRKKKTTKLRLE [NEUROD6]			4.9 ± 0.28	4.94 ± 0.35
THIMKGEDDALSDKHGCPAYVSPE [TRIB1]			5.12 ± 0.14	4.91 ± 0.22
KAFGVGVAYRSLGRFEQLGKTAAS [FSD1]			2.77 ± 0.3	2.69 ± 0.24
FEGRTPMHVACQHGQENIVRILLR [RIPK4]			2.95 ± 0.49	2.95 ± 0.2
LDLSKNKLQQLPADFGRLVNLQHL [LRRC59]			2.54 ± 0.33	2.63 ± 0.26
SPPTRPVPGHRSERAIRTQPKQLI [SPRY1]			4.04 ± 0.37	4.05 ± 0.18
ISESGGLNWKMTLCLLVAWSIVGM [SLC6A17]			2.71 ± 0.28	2.83 ± 0.67
LTHLVKLDLSKNKLQQLPADFGRL [LRRC59]			2.65 ± 0.19	2.7 ± 0.17
RNWALKESFIKAIGVGLGFELQRL [AASDHPPT]			3 ± 0.54	2.63 ± 0.52
LLLILCMQHSFPEPGRLYLDLILA [TMEM192]			3.3 ± 0.48	3.11 ± 0.32
LSRYQNELAGVDTELLAERFYYQA [SMG5]			2.7 ± 0.51	2.81 ± 0.43
PDANTWTALPPMNEARHNFGIVEI [GAN]			2.42 ± 0.34	2.51 ± 0.43
TYEEAAAYIQCQFEDLNKRKDTKE [GNAI1]			4.61 ± 0.15	4.67 ± 0.12
SLDGKAIKVEQATKPSFESGRRGP [RBMX]			4.84 ± 0.4	4.94 ± 0.35
GLSIPSHSSELTEQKLRACLEGSI [RPAIN]			3.63 ± 0.39	3.53 ± 0.24
IQKNKLKLTREQEELEEALEVERQ [MNAT1]			5.23 ± 0.31	5.24 ± 0.17
NTVVSTYVTTNVSLIPPRSEQLVN [TMEM106C]			3.04 ± 0.3	3.19 ± 0.24

Sequence	protein stability index (treatment: DMSO, c terminus: native)	protein stability index (treatment: MLN4924 1 uM, 8 h, c terminus: native)	protein stability index [1]	protein stability index [2]
KMGLQERSETFLEVWGNALLRPPV [DNAAF3]			2.52 ± 0.55	2.49 ± 0.34
VLPEDRILREELQKQRLREILEQQ [ZNF277]			4.63 ± 0.4	4.21 ± 0.41
RTDEELQPPTTTVARSGTPAVENK [PLK2]			5.42 ± 0.6	5.45 ± 0.27
TWMFFFMMCVAERTYKQRFLFAKL [PHTF1]			2.83 ± 0.22	2.92 ± 0.36
YVDSPALTNIWMARTCAKQNINAP [C22orf31]			3 ± 0.59	2.36 ± 0.24
WDLRMKLHDRGAQVIHPQEFRRWR [DNAAF3]			2.77 ± 0.35	3.02 ± 0.28
YYLCGFCPAELFTNTRSDLDVFGR [LUC7L3]			2.26 ± 0.25	2.04 ± 0.21
TIVTDVFQGSMRIFTKKLPHPDLP [USP39]			2.31 ± 0.099	2.38 ± 0.29
MAQSRDGGNPFAEPSELDNPFQDP [SCAMP3]			5.19 ± 0.17	5.19 ± 0.23
DPRVQDFLQRCLESPFSRKLDLWS [NET1]			2.34 ± 0.25	2.27 ± 0.25
ILFYCHFPDLLLTKRDSFLKRLYR [ALG2]			2.81 ± 0.6	2.18 ± 0.51
SGTVAAVLTLPFDVVKTQRQVALG [SLC25A39]			2.15 ± 0.32	2.27 ± 0.3
VSLGATGGPPAGPGGVYAGPEPPP [JUNB]			4.61 ± 0.094	4.46 ± 0.31
FSFLGLLALGVSLLCNAITGITLL [PTGFR]			2.77 ± 0.31	3.09 ± 0.98
SAPDTMKRYSMYLTPKGGVRTSYQ [TRIM29]			2.94 ± 0.21	3.05 ± 0.16
EALKHPWVCQRSTVASMMHRQETV [CAMK2B]			2.88 ± 0.27	2.97 ± 0.21
AKRNRLAPAHVDEQVFLYENARSG [ZBED1]			4.3 ± 0.59	4.43 ± 0.25
SARYLSQCQEAEQARAELTAQHQR [FBF1]			4.76 ± 0.28	4.57 ± 0.15
SGLQGLPECTRCGHGIVGTIVKAR [PDLIM4]			2.51 ± 0.32	2.64 ± 0.34
DWVMWAVNEFSLKGVDFQKFCMNG [ETS1]			3.16 ± 0.39	3.05 ± 0.47
IDDLFAFVIKMPVMYRIGCLRDDV [CLPTM1]			3.07 ± 0.97	3.2 ± 0.74
AAQPMQPLPESLASLHPSVSPGSP [PLAGL1]			5.2 ± 0.12	5.17 ± 0.29

Sequence	protein stability index (treatment: DMSO, c terminus: native)	protein stability index (treatment: MLN4924 1 uM, 8 h, c terminus: native)	protein stability index [1]	protein stability index [2]
EKETQIIASIGRHRYIAYMANQEA [IQUB]			3.07 ± 0.32	2.88 ± 0.46
SAPEQELLVQDATPVSNSLLPEKA [GFOD1]			5.29 ± 0.28	5.4 ± 0.26
ERIRLLRQKREAAARKKYNLLQDS [C18orf25]			3.25 ± 0.34	3.6 ± 0.36
EADPPASDLPTPQAIEPQAIVQQV [SNX8]			5.34 ± 0.11	5.2 ± 0.24
ETRPAKRITITESNMKSRYTTEFH [WEE1]			3.49 ± 0.27	3.6 ± 0.071
VPQALSATTYKHGVLTRKTHADMD [PSD2]			4.47 ± 0.18	4.56 ± 0.12
DEPSKPTLALEYTYGRRAKGHNTP [DYNC2LI1]			4.48 ± 0.23	4.65 ± 0.21
FQILKYLFQIDVYDFMNSAFSPIV [MIA2]			2.75 ± 0.038	2.85 ± 1
VGTAAVNMCLVATGGADAYYEMGI [IMPA1]			2.71 ± 0.045	2.73 ± 1.1
TIDMGPQLKVVERTRTATMLCAAS [PTPRD]			3.18 ± 0.23	3.49 ± 0.21
RAHAEIRKMSLLKFLAKVNGSDPR [MAGEA10]			2.37 ± 0.26	2.57 ± 0.58
MTKTVQYQNELHKFLIWDTAGQER [RAB22A]			3.03 ± 0.23	3.14 ± 0.17
EQWDRLLVLYPTSLAIFSEELDGL [PLEKHN1]			2.37 ± 0.3	2.44 ± 0.43
PAGERRIYRHRIPSTICFGQGAAR [ZNF511]			2.89 ± 0.5	3.22 ± 0.45
NDVKHHRWFRSVDWEAVPQRKLKP [PRKX]			3.65 ± 0.19	3.6 ± 0.24
VWVTHEEMETLETSTKTDSEEGSW [PPFIA4]			4.19 ± 0.29	4.68 ± 0.22
LEFKLKSNDNEERLQVVKLLAKMF [PDS5B]			2.12 ± 0.38	2.29 ± 0.28
RTFLETSTDTAVTNEWEKRLSTSP [EPB41L3]			4.17 ± 0.33	3.98 ± 0.2
DETTRSDISERPSVDDIESETGST [C2CD2L]			5.68 ± 0.1	5.6 ± 0.32
LIHPELNEGLMKWENRHEGVFKFL [ELF3]			2.36 ± 0.15	2.48 ± 0.19
EGVSLTAVLTTHHHWDHARGNPEL [HAGHL]			2.72 ± 0.27	2.87 ± 0.42
